The results in this text go back to patent publication US20240002501A1.

The target of assay [1] is L1-CAM-Fc (UniProt P32004). Briefly: SPR (Biacore T100), L1-CAM-Fc immobilised on CM5 chip.
Another assay concerns the target L1-CAM-His. Briefly: SPR (Biacore T100), L1-CAM-His immobilised on CM5 chip. A general note: Surface plasmon resonance follows binding to a sensor surface in real time, without labels.
In assay [2] the target is L1-CAM-Fc (UniProt P32004). Briefly: SPR (Biacore T100), L1-CAM-Fc immobilised on CM5 chip. This is another data set of the same source.

Where two headings read alike, the source gives them in different places.

L1-CAM-Fc, sequence (P32004 20-1120 limits assumed): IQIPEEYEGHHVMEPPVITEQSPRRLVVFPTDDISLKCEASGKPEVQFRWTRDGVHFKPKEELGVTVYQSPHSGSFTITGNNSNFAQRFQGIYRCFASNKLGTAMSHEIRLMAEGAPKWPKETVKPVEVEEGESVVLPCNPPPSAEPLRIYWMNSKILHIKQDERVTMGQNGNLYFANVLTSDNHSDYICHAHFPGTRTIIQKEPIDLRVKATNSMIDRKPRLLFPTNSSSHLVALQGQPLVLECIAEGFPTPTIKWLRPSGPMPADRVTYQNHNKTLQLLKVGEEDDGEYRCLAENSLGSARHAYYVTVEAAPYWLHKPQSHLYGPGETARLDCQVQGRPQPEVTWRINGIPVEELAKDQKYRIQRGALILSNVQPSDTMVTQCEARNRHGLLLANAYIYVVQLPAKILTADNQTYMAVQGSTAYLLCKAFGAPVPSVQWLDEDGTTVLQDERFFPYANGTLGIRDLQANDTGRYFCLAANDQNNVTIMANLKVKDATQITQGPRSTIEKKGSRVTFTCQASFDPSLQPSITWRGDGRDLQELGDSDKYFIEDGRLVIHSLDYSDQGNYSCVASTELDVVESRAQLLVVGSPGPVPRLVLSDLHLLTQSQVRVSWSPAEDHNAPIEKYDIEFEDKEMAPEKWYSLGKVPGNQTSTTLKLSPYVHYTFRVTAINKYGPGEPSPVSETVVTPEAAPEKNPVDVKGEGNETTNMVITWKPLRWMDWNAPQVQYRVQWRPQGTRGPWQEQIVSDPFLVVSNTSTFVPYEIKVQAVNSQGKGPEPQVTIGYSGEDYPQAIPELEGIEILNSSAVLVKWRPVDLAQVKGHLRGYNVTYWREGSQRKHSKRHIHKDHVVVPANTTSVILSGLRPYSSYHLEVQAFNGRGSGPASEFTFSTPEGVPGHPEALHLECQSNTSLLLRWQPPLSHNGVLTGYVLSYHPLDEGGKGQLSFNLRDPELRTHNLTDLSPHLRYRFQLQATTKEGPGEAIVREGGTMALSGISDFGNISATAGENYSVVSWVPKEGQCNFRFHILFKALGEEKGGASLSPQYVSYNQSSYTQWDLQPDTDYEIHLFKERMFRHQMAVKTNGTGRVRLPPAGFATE
L1-CAM-His, sequence (P32004 20-1120): as the sequence (P32004 20-1120 limits assumed) above

B1: chCE7 (antibody, from another filing, V domains shown)
VH: QVQLQQPGAELVKPGASVKLSCKASGYTFTGYWMHWVKQRPGHGLEWIGEINPSNGRTNYNERFKSKATLTVDKSSTTAFMQLSGLTSEDSAVYFCARDYYGTSYNFDYWGQGTTLTVSS
VL: DIQMTQSSSSFSVSLGDRVTITCKANEDINNRLAWYQQTPGNSPRLLISGATNLVTGVPSRFSGSGSGKDYTLTITSLQAEDFATYYCQQYWSTPFTFGSGTELEIK
As a reminder, the Kd is the concentration at which binding is half-saturated. A lower Kd goes with tighter binding. In the case of B1, the Kd came out at 1.42 nM with L1-CAM-Fc [1], 1.3 nM with L1-CAM-His and 0.618 nM with L1-CAM-Fc [2].
